Data reported in patent US20180282403A1, “AGENTS FOR REDUCING THE ACTIVITY OF GDF15” (GENAGON THERAPEUTICS AB, priority 2015, published 2018).
Blank lines part the entries; values can stand above or below the molecule they belong to. Residues, ends and D or L forms follow the SMILES beside them. No end group written: not given here. *: point of attachment. Cbz = O=C(OCc1ccccc1)*

Assays:
GDF15 [1] = molecular target: T1, GDF15 (Homo sapiens, UniProt Q99988); test: Biotin pull-down of GDF15 using biotinylated peptides derived from QRFPR and CLPTM1; type: binding; details: N-terminal biotin peptides on Streptavidin-agarose beads, extensive washes; FIG. 8A
T1 construct: purchased Abcam
T1 sequence (Q99988 197-308 limits assumed): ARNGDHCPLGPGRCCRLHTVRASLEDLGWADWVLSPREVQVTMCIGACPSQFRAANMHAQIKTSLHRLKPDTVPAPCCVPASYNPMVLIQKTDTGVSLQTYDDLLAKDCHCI
Description: In order to further characterise the peptides which interact with GDF15, a series of GST-fusion proteins and biotinylated peptides was prepared. GDF15 was obtained from Biovision and/or Abcam.
A series of peptides from the QRFPR and the CLPTM1 proteins was designed. In order to use the peptides both for immunoprecipitation experiments and cell culture based assays added an N-terminal biotin was added to each peptide, and the counter-ion changed to chloride.
A series of biotinylated peptides was used (FIG. 8A). […] Combinations of the peptides were also used. Peptides were mixed in a 1:1 ratio, with same total amounts as in lanes 1-5, resulting in 50% of each peptide as compared to lanes 1-5. Lane 6: EC domain 3 & EC domain 4 from QRFPR; Lane 7: EC domain 4 from QRFPR & peptide from EC domain of CLPTM1; Lane 8: EC domain 3 from QRFPR & peptide from EC domain of CLPTM1; Lane 9: Mw markers; Lane 10: GDF15 (positive control).

QRFPR = molecular target: T2, QRFPR (Homo sapiens, UniProt Q96P65); test: QRFPR levels after prolonged GDF15 stimulation with or without proteasome inhibition; type: cell-based; details: MG132 10 μM + GDF15 overnight vs equal GDF15 without MG132; FIG. 6
T2 construct: endogenous in cells
T2 sequence (Q96P65 1-431): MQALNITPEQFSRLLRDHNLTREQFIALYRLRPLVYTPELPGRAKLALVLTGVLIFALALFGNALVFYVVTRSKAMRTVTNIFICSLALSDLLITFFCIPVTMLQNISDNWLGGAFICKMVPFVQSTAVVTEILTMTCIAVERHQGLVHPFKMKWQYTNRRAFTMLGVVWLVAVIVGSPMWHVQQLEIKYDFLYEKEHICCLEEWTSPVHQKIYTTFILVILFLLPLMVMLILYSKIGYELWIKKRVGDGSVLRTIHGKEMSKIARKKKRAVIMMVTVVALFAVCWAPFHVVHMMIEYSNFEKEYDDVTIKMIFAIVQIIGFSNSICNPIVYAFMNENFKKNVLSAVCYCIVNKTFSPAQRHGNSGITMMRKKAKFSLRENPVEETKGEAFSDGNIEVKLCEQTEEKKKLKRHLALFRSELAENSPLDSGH
Description: This effect is not seen in cells which are treated with MG132 (FIG. 6D).

GDF15 [2] = molecular target: T1, GDF15; test: Pull down of GDF15 by Fc fusion proteins with stringent washes; type: binding; details: 20 μg Fc fusion protein, 0.5 μg GDF15, protein-G bead, FIG. 27
Description: (§1) 20 μg Fc fusion protein constructs were incubated with 0.5 μg GDF15 and protein-G bead with mixing for 6 hrs in +4 C in PBST+1% BSAs. Wash 6 times: 3 times PBST, change tubes, 2 washes PBST+220 mM NaCl. Last wash PBS. The beads were collected using a table-top centrifuge set at 500 g for 5 minutes between washes. Detection The material was loaded on a 4-12% gradient gel, run at 100 volt, transferred to PVDF membrane using a Turbo Tank blot system, blocked by PBS with 3% BSA 1 hr RT, and incubated with RD systems a monoclonal anti-GDF15 antibody overnight. A secondary antibody: mouse HRP 1:2000 was used for detection. The size of band was estimated by comparing with a seeblue2 protein ladder marker run in an adjacent lane.
The fragments from the receptors were selected based on previous results including array data indicating direct interaction with GDF15. In the array, the interaction is between a peptide monomer and the ligand.

CD14+ cells = test: Cytokine secretion by LPS-stimulated CD14+ cells (Proseek assay); type: cell-based
Description: CD14+ cells where isolated and cultured in the presence or absence of GDF15 in a LPS stimulated culture.
Buffy coat cell suspension or heparinized blood samples were diluted with sterile, room temperature PBS. Peripheral blood samples are diluted 1:1, whereas buffy coats are diluted to a final volume of 120 ml (in a standard buffy coat this will result in slightly greater dilution than 1:1). The diluted cell suspension was layered onto Ficoll Paque PLUS. For one buffy 4×15 ml aliquots are used (30 ml of diluted cell suspension/tube). Cells were centrifuged at 400×g for 30 min at room temperature and transferred to a new 50 ml tube. Cells were washed once and resuspended in 20 ml PBS.
Mononuclear cell suspension was pelleted by centrifugation. Cells were resuspended in Stemcell buffer at a concentration of 10^8 cells/ml and transferred to a round bottom 14 ml tube. EasySep Positive Selection cocktail at was added at 100 μl/ml cells, mixed by gentle pipetting, and incubated at room temperature for 15 min. 50 μl EasySep Magnetic Nanoparticles per 1 ml cells were added and mixed, and incubated at room temperature for 10 min. Stemcell recommended medium was added to bring the cell suspension to a total volume of 5 ml and mixed by gently pipetting. The tube (without cap) was placed into the magnet and set aside for 5 min. After 5 minutes the supernatant was discarded. CD14+ labelled cells will remain inside the tube. The tube was removed from the magnet and add 5 ml Stemcell recommended medium was added and mixed by gently pipetting. The tube (without cap) was placed into the magnet and set aside for 5 min. The was step was repeated before the cells were resuspended in 5 ml complete RPMI medium. 50 μl of the CD14+ cell suspension was removed and counted to determine total cell number after dilution in Trypan blue solution and mounting on Fast Read 102 Counting Slides.
Adjust CD14+ cell suspension volume to a concentration of 0.833×10^6 cells/ml in complete RPMI medium. 300 μl of cell suspension is added to wells in a 48 well plate well (0.25×10^6 cells per well), and allowed to adhere for 90 min in an incubator at 37° C. Non-adherent cells were removed by removal of the supernatant after gently pipetting the medium. Cells were washed once with 300 μl pre-warmed complete RPMI medium and the medium aspirated off. 300 μl pre-warmed complete RPMI medium was added to each well and the cells were incubate overnight (20-24 h) in a cell incubator at 37° C.
A 17× stock solution of the desired GDF15 modulatory substances was diluted in complete RPMI. (20 μl of substance/well assayed). 20 μl of modulatory substance or medium/carrier (negative control) was added to each well and mixed by gentle pipetting. Cells were incubated for 30 min in a cell incubator at 37° C. A 17×GDF15 solution was prepared by diluting a 100 μg/ml stock solution to a concentration of 8.5 μg/ml (final concentration in culture 0.5 μg/ml) in complete RPMI. 20 μl of diluted GDF15 was added per well, and incubated overnight (18-20 h) in a cell incubator at 37° C.
A 18×LPS solution was prepared by diluting the LPS stock solution to a concentration of 18 ng/ml (final concentration in culture 1 ng/ml) in complete RPMI. 20 μl of LPS or medium (negative control) was added to each well and mixed by gentle pipetting. […]
Secreted proteins from cell cultures where quantified using multiplexed proximity extension assay, Proseek (Assarsson E et al PlosOne 2014) by Olink Proteomics AB (Uppsala Sweden). […]

[3] = molecular target: T3, Growth and differentiation factor 15 (GDF15) (UniProt Q99988 197-308, limits assumed); test: Fc-fusion pull-down on protein-G beads, Western blot
T3 construct: Purchased GDF15 added to cells, pull-downs, peptide arrays and ELISA; also called MIC1
T3 sequence (looked up): T1 sequence (Q99988 197-308 limits assumed)
Description: as §1

[4] = molecular target: T4, Cleft Lip and Palate Transmembrane protein 1 (CLPTM1) (human, UniProt O96005 2-669); test: in situ PLA on NK-92 cells
T4 construct: Endogenous receptor of NK-92 cells, CD14+ cells and human tissues
T4 sequence: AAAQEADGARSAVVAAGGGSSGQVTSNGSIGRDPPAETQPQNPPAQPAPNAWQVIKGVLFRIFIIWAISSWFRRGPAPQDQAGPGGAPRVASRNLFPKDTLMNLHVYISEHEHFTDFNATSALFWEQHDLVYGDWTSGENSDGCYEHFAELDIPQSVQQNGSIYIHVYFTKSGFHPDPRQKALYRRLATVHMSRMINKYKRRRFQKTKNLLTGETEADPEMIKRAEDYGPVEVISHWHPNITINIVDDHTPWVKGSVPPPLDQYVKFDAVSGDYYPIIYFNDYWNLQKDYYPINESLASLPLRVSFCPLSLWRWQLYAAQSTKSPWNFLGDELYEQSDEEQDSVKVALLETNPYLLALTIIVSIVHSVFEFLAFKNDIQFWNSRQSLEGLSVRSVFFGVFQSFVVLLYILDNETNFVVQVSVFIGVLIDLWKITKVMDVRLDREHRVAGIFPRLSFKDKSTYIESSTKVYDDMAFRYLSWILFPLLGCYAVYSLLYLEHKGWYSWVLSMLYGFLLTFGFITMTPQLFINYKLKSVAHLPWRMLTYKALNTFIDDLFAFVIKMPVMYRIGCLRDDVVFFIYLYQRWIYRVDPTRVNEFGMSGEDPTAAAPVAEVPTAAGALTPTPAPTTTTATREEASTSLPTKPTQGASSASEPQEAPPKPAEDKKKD

[5] = LPS stimulated CD14+ cells with GDF15 + agent

Molecule: GALFWEQHDLVYGDWTS (listed as Homo sapiens) [SEQ ID NO:19]
GDF15 precipitated by biotinylated peptide (pull-down) (GDF15 [1]): more successful than the others in precipitating GDF15

Molecule: CC(C)C[C@@H](C=O)NC(=O)[C@H](CC(C)C)NC(=O)[C@H](CC(C)C)NC(=O)OCc1ccccc1 [MG132, reference compound] (Cbz-Leu-Leu-Leu-aldehyde)
levels of QRFPR (QRFPR): levels of QRFPR were increased

Molecule: GEIKYDFLYEKEHICCLEEWTS (listed as Homo sapiens) [SEQ ID NO:10]
GDF15 precipitated by biotinylated peptide (pull-down) (GDF15 [1]): more successful than the others in precipitating GDF15

pull down of GDF15 by Fc fusion protein (GDF15 [2]): capable of pulling down GDF15
Molecule: Fc mouse IgG1-GGGGSGGGGSGGGGSYISEHEHFTDFNATSALFWEQHDLVYGDWTS ({Fc mouse IgG1}-GGGGSGGGGSGGGGSYISEHEHFTDFNATSALFWEQHDLVYGDWTS) [AP2, Fc fusion protein with CLPTM1 peptide]
secretion of IFNγ (CD14+ cells; LPS stimulated CD14+ cells + agent, FIG. 30): demonstrated secretion of the pro-inflammatory protein IFNγ | secretion of IL12 (CD14+ cells; [5]): increase in secretion of both cytokines | secretion of TNF (CD14+ cells; [5]): increase in secretion of both cytokines

binding result [3]: binds
B1: AP2 (CLPTM1 peptide): Fc mouse IgG1-GGGGSGGGGSGGGGSYISEHEHFTDFNATSALFWEQHDLVYGDWTS (Fc fusion, not shown: a dimerising Fc or GST)
chain: {Fc mouse IgG1}-GGGGSGGGGSGGGGSYISEHEHFTDFNATSALFWEQHDLVYGDWTS
modifications: also: Fc fusion dimer
notes: also called AP2 construct; Fc fusion protein comprising a CLPTM1 polypeptide

binding result [4]: binds
B2: TGFBRII (receptor, UniProt P37173 23-567, looked up)
chain: TIPPHVQKSVNNDMIVTDNNGAVKFPQLCKFCDVRFSTCDNQKSCMSNCSITSICEKPQEVCVAVWRKNDENITLETVCHDPKLPYHDFILEDAASPKCIMKEKKKPGETFFMCSCSSDECNDNIIFSEEYNTSNPDLLLVIFQVTGISLLPPLGVAISVIIIFYCYRVNRQQKLSSTWETGKTRKLMEFSEHCAIILEDDRSDISSTCANNINHNTELLPIELDTLVGKGRFAEVYKAKLKQNTSEQFETVAVKIFPYEEYASWKTEKDIFSDINLKHENILQFLTAEERKTELGKQYWLITAFHAKGNLQEYLTRHVISWEDLRKLGSSLARGIAHLHSDHTPCGRPKMPIVHRDLKSSNILVKNDLTCCLCDFGLSLRLDPTLSVDDLANSGQVGTARYMAPEVLESRMNLENVESFKQTDVYSMALVLWEMTSRCNAVGEVKDYEPPFGSKVREHPCVESMKDNVLRDRGRPEIPSFWLNHQGIQMVCETLTECWDHDPEARLTAQCVAERFSELEHLDRLSGRSCSEEKIPEDGSLNTTK
notes: whole, on cells

binding result [3]: binds
B3: AP5 (QRFPR peptide): Fc mouse IgG1-GGGGSGGGGSGGGGSQRLEIKYDFLYEKEH (Fc fusion, not shown: a dimerising Fc or GST)
chain: {Fc mouse IgG1}-GGGGSGGGGSGGGGSQRLEIKYDFLYEKEH
modifications: also: Fc fusion dimer
notes: if the entry holds the Fc too, the first part is redundant; also called AP5 construct; Fc fusion protein comprising a QRFPR polypeptide

binding result [4]: binds
B4: TGFBRI (ALK5) (receptor, UniProt P36897 34-503, looked up)
chain: LQCFCHLCTKDNFTCVTDGLCFVSVTETTDKVIHNSMCIAEIDLIPRDRPFVCAPSSKTGSVTTTYCCNQDHCNKIELPTTVKSSPGLGPVELAAVIAGPVCFVCISLMLMVYICHNRTVIHHRVPNEEDPSLDRPFISEGTTLKDLIYDMTTSGSGSGLPLLVQRTIARTIVLQESIGKGRFGEVWRGKWRGEEVAVKIFSSREERSWFREAEIYQTVMLRHENILGFIAADNKDNGTWTQLWLVSDYHEHGSLFDYLNRYTVTVEGMIKLALSTASGLAHLHMEIVGTQGKPAIAHRDLKSKNILVKKNGTCCIADLGLAVRHDSATDTIDIAPNHRVGTKRYMAPEVLDDSINMKHFESFKRADIYAMGLVFWEIARRCSIGGIHEDYQLPYYDLVPSDPSVEEMRKVVCEQKLRPNIPNRWQSCEALRVMAKIMRECWYANGAARLTALRIKKTLSQLSQQEGIKM
notes: whole, on cells; also called TGFBR1
